Reference: article PMC7168832

How the values were obtained:
[1] = target: prohibitin isoform 1 (human (endogenous in SH-SY5Y, U-87 MG, CHME-3)) (UniProt P35232)
[2] = target: prohibitin-2 isoform 1 (human (endogenous in SH-SY5Y, U-87 MG, CHME-3)) (UniProt Q99623)
[3] = target: prohibitin-2 isoform 1 (human (endogenous in SH-SY5Y, U-87 MG, CHME-3)) (UniProt Q99623); remark: listed apart in the source
[4] = target: prohibitin isoform 1 (human (endogenous in SH-SY5Y, U-87 MG, CHME-3)) (UniProt P35232); remark: listed apart in the source
[5] = target: prohibitin-2 isoform 1 (human (endogenous in SH-SY5Y, U-87 MG, CHME-3)) (UniProt Q99623); remark: listed apart in the source

Sequence of UniProt P35232 (P35232 whole entry, canonical isoform): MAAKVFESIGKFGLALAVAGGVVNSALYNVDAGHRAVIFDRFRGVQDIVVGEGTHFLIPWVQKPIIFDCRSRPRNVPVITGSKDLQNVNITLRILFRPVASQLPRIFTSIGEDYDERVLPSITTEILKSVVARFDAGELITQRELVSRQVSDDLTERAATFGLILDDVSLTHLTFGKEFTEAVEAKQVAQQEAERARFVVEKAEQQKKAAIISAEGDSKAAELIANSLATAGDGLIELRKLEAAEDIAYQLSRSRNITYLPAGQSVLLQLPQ
Sequence of UniProt Q99623 (Q99623 whole entry, canonical isoform): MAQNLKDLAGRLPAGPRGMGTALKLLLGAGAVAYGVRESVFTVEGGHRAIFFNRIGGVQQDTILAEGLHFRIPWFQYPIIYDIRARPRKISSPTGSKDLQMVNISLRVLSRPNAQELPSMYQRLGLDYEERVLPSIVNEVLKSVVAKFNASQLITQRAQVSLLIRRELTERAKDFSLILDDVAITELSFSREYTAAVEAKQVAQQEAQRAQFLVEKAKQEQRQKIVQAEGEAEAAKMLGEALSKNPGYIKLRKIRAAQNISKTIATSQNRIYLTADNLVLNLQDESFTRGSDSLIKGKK

DENV-3 (16562), purified virus (complex)
reduction in DENV-3 plaques, CHME-3 cells pre-incubated with PHB1 antibody [1]: 73.3%
reduction in DENV-3 plaques, SH-SY5Y cells pre-incubated with anti-PHB1 antibody [1]: 55%
reduction in DENV-3 plaques, CHME-3 cells pre-incubated with PHB2 antibody [2]: 82.2%
reduction in DENV-3 plaques, SH-SY5Y cells pre-incubated with anti-PHB2 antibody [2]: 75%
entry assay: reduction in virus titre, CHME-3 cells with bound DENV-3 (MOI 100) treated with PHB2 polyclonal antibody at 37 °C for 1.5 h [3]: 82%
% fluorescent (DENV-3 antigen) positive SH-SY5Y cells by IFA 30 h PI, cells pre-incubated with anti-PHB1 antibody, 1 to 2 μg (17 to 10%; virus control 40%, anti-actin control 35%) [4]: 17%
% fluorescent (DENV-3 antigen) positive SH-SY5Y cells by IFA 30 h PI, cells pre-incubated with anti-PHB2 antibody, 1 to 2 μg (11 to 6%; virus control 40%, anti-actin control 35%) [5]: 11%
